Test results: patent US20210206841A1 (RESEARCH INSTITUTE AT NATIONWIDE CHILDREN S HOSPITAL, published 2021)

B1: humanized anti-tip monoclonal antibody, heavy chain SEQ ID NO: 1 and light chain SEQ ID NO: 9 (antibody, V domains shown)
VH: EVKLVESGGGLVQPGGSLRLSCAASGFTFRTYAMSWVRQAPGKGLEWVATIGSDRRHTYYPDSVKGRFTISRDNAKNTLYLQMNSLRAEDTAVYYCVGPYDGYYGEFDYWGQGTLVTVSS
VL: DVVMTQSPDSLAVSLGERATINCKSSQSLLDSDGKTFLNWLQQKPGQPPKRLIYLVSKLDSGVPDRFSGSGSGTDFTLTISSLQAEDVAVYYCWQGTHFPYTFGQGTKLEIKR
notes: also called H10210 (1F8.F1 Humanized HC1) + L10212 (1F8.F1 Humanized LC3)
B2: humanized anti-tip monoclonal antibody, heavy chain SEQ ID NO: 2 and light chain SEQ ID NO: 9 (antibody, V domains shown)
VH: EVQLVESGGGLVQPGGSLRLSCAASGFTFRTYAMSWVRQAPGKGLEWVATIGSDRRHTYYPDSVKGRFTISRDNSKNTLYLQMNSLRAEDTAVYYCVGPYDGYYGEFDYWGQGTLVTVSS
VL: DVVMTQSPDSLAVSLGERATINCKSSQSLLDSDGKTFLNWLQQKPGQPPKRLIYLVSKLDSGVPDRFSGSGSGTDFTLTISSLQAEDVAVYYCWQGTHFPYTFGQGTKLEIKR
notes: also called H10211 (1F8.F1 Humanized HC2) + L10212 (1F8.F1 Humanized LC3)
B3: humanized anti-tail monoclonal antibody, heavy chain SEQ ID NO: 4 and light chain SEQ ID NO: 10 (antibody, V domains shown)
VH: EVQLVESGGGLVKPGGSLRLSCAASGFTFSRYGMSWVRQAPGKGLEWVATISSGGSYTYYTDSVKGRFTISRDNAKNSLYLQMNSLRAEDTAVYYCERHGGDGYWYFDVWGQGTMVTVSS
VL: DIQMTQSPSSLSASVGDRVTITCRASQDISNYLNWYQQKPGKAVKLLIYYTSRLHSGVPSRFSGSGSGTDYTLTISSLQPEDFATYFCQQGNPLRTFGGGTKVEIKR
notes: also called HuTailMab; TP-21958
B4: humanized anti-tail monoclonal antibody, heavy chain SEQ ID NO: 4 and light chain SEQ ID NO: 12 (antibody, V domains shown)
VH: EVQLVESGGGLVKPGGSLRLSCAASGFTFSRYGMSWVRQAPGKGLEWVATISSGGSYTYYTDSVKGRFTISRDNAKNSLYLQMNSLRAEDTAVYYCERHGGDGYWYFDVWGQGTMVTVSS
VL: DIVMTQSPATLSLSPGERATLSCRASQDISNYLNWYQQKPGQAVRLLIYYTSRLHSGIPARFSGSGSGTDYTLTISSLEPEDFAVYFCQQGNPLRTFGGGTKVEIKR
notes: also called H10213 (11E7.C7 Humanized HC1) + L10215 (11E7.C7 Humanized LC3)
B5: humanized anti-tail monoclonal antibody, heavy chain SEQ ID NO: 4 and light chain SEQ ID NO: 11 (antibody, V domains shown)
VH: EVQLVESGGGLVKPGGSLRLSCAASGFTFSRYGMSWVRQAPGKGLEWVATISSGGSYTYYTDSVKGRFTISRDNAKNSLYLQMNSLRAEDTAVYYCERHGGDGYWYFDVWGQGTMVTVSS
VL: DIQMTQSPSSLSASVGDRVTITCRASQDISNYLNWYQQKPGKAVKLLIYYTSRLHSGVPSRFSGSGSGTDYTLTISSLQPEDFATYYCQQGNPLRTFGGGTKVEIKR
notes: also called H10213 (11E7.C7 Humanized HC1) + L10214 (11E7.C7 Humanized LC2)
B6: humanized anti-tip monoclonal antibody, heavy chain SEQ ID NO: 3 and light chain SEQ ID NO: 7 (antibody, V domains shown)
VH: EVKLVQSGAEVKKPGASVKVSCKASGFTFRTYAMSWVRQAPGQRLEWVATIGSDRRHTYYPDKFQGRVTITRDNAKNTLYMELSSLRSEDTAVYYCVGPYDGYYGEFDYWGQGTLVTVSS
VL: DVVMTQSPLSLPVTLGQPASISCRSSQSLLDSDGKTFLNWLQQRPGQSPRRLIYLVSKLDSGVPDRFSGSGSGTDFTLKISRVEAEDVGVYYCWQGTHFPYTFGQGTKLEIKR
notes: also called H10212 (1F8.F1 Humanized HC3) + L10210 (1F8.F1 Humanized LC1)
B7: humanized anti-tip monoclonal antibody, heavy chain SEQ ID NO: 3 and light chain SEQ ID NO: 9 (antibody, V domains shown)
VH: EVKLVQSGAEVKKPGASVKVSCKASGFTFRTYAMSWVRQAPGQRLEWVATIGSDRRHTYYPDKFQGRVTITRDNAKNTLYMELSSLRSEDTAVYYCVGPYDGYYGEFDYWGQGTLVTVSS
VL: DVVMTQSPDSLAVSLGERATINCKSSQSLLDSDGKTFLNWLQQKPGQPPKRLIYLVSKLDSGVPDRFSGSGSGTDFTLTISSLQAEDVAVYYCWQGTHFPYTFGQGTKLEIKR
notes: also called H10212 (1F8.F1 Humanized HC3) + L10212 (1F8.F1 Humanized LC3)
B8: humanized anti-tip monoclonal antibody, heavy chain SEQ ID NO: 1 and light chain SEQ ID NO: 7 (antibody, V domains shown)
VH: EVKLVESGGGLVQPGGSLRLSCAASGFTFRTYAMSWVRQAPGKGLEWVATIGSDRRHTYYPDSVKGRFTISRDNAKNTLYLQMNSLRAEDTAVYYCVGPYDGYYGEFDYWGQGTLVTVSS
VL: DVVMTQSPLSLPVTLGQPASISCRSSQSLLDSDGKTFLNWLQQRPGQSPRRLIYLVSKLDSGVPDRFSGSGSGTDFTLKISRVEAEDVGVYYCWQGTHFPYTFGQGTKLEIKR
notes: also called HuTipMab; TP-21949
B9: humanized anti-tip monoclonal antibody, heavy chain SEQ ID NO: 1 and light chain SEQ ID NO: 8 (antibody, V domains shown)
VH: EVKLVESGGGLVQPGGSLRLSCAASGFTFRTYAMSWVRQAPGKGLEWVATIGSDRRHTYYPDSVKGRFTISRDNAKNTLYLQMNSLRAEDTAVYYCVGPYDGYYGEFDYWGQGTLVTVSS
VL: DVVMTQSPLSLPVTLGQPASISCRSSQSLLDSDGKTFLNWLQQRPGQSPRRLIYLVSKRDSGVPDRFSGSGSGTDFTLKISRVEAEDVGVYYCWQGTHFPYTFGQGTKLEIKR
notes: also called H10210 (1F8.F1 Humanized HC1) + L10211 (1F8.F1 Humanized LC2)
B10: humanized anti-tip monoclonal antibody, heavy chain SEQ ID NO: 2 and light chain SEQ ID NO: 8 (antibody, V domains shown)
VH: EVQLVESGGGLVQPGGSLRLSCAASGFTFRTYAMSWVRQAPGKGLEWVATIGSDRRHTYYPDSVKGRFTISRDNSKNTLYLQMNSLRAEDTAVYYCVGPYDGYYGEFDYWGQGTLVTVSS
VL: DVVMTQSPLSLPVTLGQPASISCRSSQSLLDSDGKTFLNWLQQRPGQSPRRLIYLVSKRDSGVPDRFSGSGSGTDFTLKISRVEAEDVGVYYCWQGTHFPYTFGQGTKLEIKR
notes: also called H10211 (1F8.F1 Humanized HC2) + L10211 (1F8.F1 Humanized LC2)
B11: humanized anti-tip monoclonal antibody, heavy chain SEQ ID NO: 2 and light chain SEQ ID NO: 7 (antibody, V domains shown)
VH: EVQLVESGGGLVQPGGSLRLSCAASGFTFRTYAMSWVRQAPGKGLEWVATIGSDRRHTYYPDSVKGRFTISRDNSKNTLYLQMNSLRAEDTAVYYCVGPYDGYYGEFDYWGQGTLVTVSS
VL: DVVMTQSPLSLPVTLGQPASISCRSSQSLLDSDGKTFLNWLQQRPGQSPRRLIYLVSKLDSGVPDRFSGSGSGTDFTLKISRVEAEDVGVYYCWQGTHFPYTFGQGTKLEIKR
notes: also called H10211 (1F8.F1 Humanized HC2) + L10210 (1F8.F1 Humanized LC1)

Legend:
[1] = molecular target: T1, native IHFNTHI (integration host factor of nontypeable Haemophilus influenzae) (nontypeable Haemophilus influenzae …, UniProt P43723 1-96; P43724 1-94); assay: SPR Biacore 3000, IHFNTHI immobilized, HuMab as analyte
T1 construct: also called NTHI IHF
T1 sequence 1: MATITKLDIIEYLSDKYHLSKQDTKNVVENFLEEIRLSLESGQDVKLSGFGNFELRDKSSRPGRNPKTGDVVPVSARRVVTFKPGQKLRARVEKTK
T1 sequence 2: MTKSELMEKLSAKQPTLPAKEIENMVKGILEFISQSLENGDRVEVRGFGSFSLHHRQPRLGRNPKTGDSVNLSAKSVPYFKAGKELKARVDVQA

[2] = molecular target: T2, tip-chimeric peptide IhfA5-mIhfB4NTHI (nontypeable Haemophilus influenzae …); assay: SPR Biacore 3000, peptide immobilized, HuMab as analyte
T2 construct: also called IHF(NTHI) tip chimeric peptide; IHFNTHI tip chimeric peptide
T2 peptide: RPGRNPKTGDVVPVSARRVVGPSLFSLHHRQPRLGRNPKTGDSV

[3] = molecular target: T1, native IHFNTHI (integration host factor …); assay: SPR Biacore 3000, HuMab immobilized, IHFNTHI as analyte
[4] = molecular target: T2, tip-chimeric peptide IhfA5-mIhfB4NTHI; assay: SPR Biacore 3000, HuMab immobilized, peptide as analyte
[5] = molecular target: T2, tip-chimeric peptide IhfA5-mIhfB4NTHI; assay: direct ELISA #2, peptide coated (curves reaching equilibrium)
[6] = molecular target: T2, tip-chimeric peptide IhfA5-mIhfB4NTHI; assay: direct ELISA #1, peptide coated (curves not reaching equilibrium)
[7] = molecular target: T3, tail-chimeric peptide IhfA3-IhfB2NTHI (nontypeable Haemophilus influenzae …); assay: SPR Biacore 3000, peptide immobilized, HuMab as analyte
T3 construct: also called IHF(NTHI) tail chimeric peptide; IHFNTHI tail chimeric peptide
T3 peptide: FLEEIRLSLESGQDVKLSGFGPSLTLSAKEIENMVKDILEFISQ

[8] = molecular target: T1, native IHFNTHI (integration host factor …); assay: SPR Biacore 3000, HuMab immobilized, IHFNTHI as analyte; remark: listed apart in the source
[9] = molecular target: T3, tail-chimeric peptide IhfA3-IhfB2NTHI; assay: SPR Biacore 3000, HuMab immobilized, peptide as analyte
[10] = molecular target: T3, tail-chimeric peptide IhfA3-IhfB2NTHI; assay: direct ELISA #2, peptide coated (curves reaching equilibrium)
[11] = molecular target: T3, tail-chimeric peptide IhfA3-IhfB2NTHI; assay: direct ELISA #1, peptide coated (curves not reaching equilibrium)

Binder	Kd [1] [nM]	koff [1] [s⁻¹]	kon [1] [M⁻¹ s⁻¹]	Kd [2] [nM]	koff [2] [s⁻¹]	kon [2] [M⁻¹ s⁻¹]	Kd [3] [nM]	koff [3] [s⁻¹]	kon [3] [M⁻¹ s⁻¹]	Kd [4] [nM]	koff [4] [s⁻¹]	kon [4] [M⁻¹ s⁻¹]	EC50 [5] [µg/mL]	EC50 [6] [µg/mL]	further results
B1	24	0.16	6.5e+06	0.3	1.3e-05	40000	0.6	0.00037	630000	152	0.00038	2500	0.055	0.032	–
B2	125	0.0017	–	4	1.2e-05	3700	62	0.00045	7200	23	7.4e-05	3500	0.0453	0.027	–
B3	–	–	–	–	–	–	–	–	–	–	–	–	–	–	Kd [7]: 4.3 nM; koff [7]: 0.00064 s⁻¹; kon [7]: 150000 M⁻¹ s⁻¹; Kd [8]: ~5.6 nM; koff [8]: 0.00043 s⁻¹; kon [8]: 77000 M⁻¹ s⁻¹; Kd [9]: 29.6 nM; koff [9]: 0.00033 s⁻¹; kon [9]: 11000 M⁻¹ s⁻¹; EC50 [10]: 0.0427 µg/mL; EC50 [11]: 0.01 µg/mL
B4	–	–	–	–	–	–	–	–	–	–	–	–	–	–	Kd [7]: 5.1 nM; koff [7]: 0.00056 s⁻¹; kon [7]: 110000 M⁻¹ s⁻¹; EC50 [10]: 0.0404 µg/mL; EC50 [11]: 0.012 µg/mL
B5	–	–	–	–	–	–	–	–	–	–	–	–	–	–	Kd [7]: 4.9 nM; koff [7]: 0.00068 s⁻¹; kon [7]: 140000 M⁻¹ s⁻¹; Kd [8]: ~5.3 nM; koff [8]: 0.00053 s⁻¹; kon [8]: 100000 M⁻¹ s⁻¹; Kd [9]: 62.2 nM; koff [9]: 0.00027 s⁻¹; kon [9]: ~4300 M⁻¹ s⁻¹; EC50 [10]: 0.0408 µg/mL; EC50 [11]: 0.011 µg/mL
B6	825	0.00011	140	8	0.0004	48000	6	0.0004	66000	29	0.0016	54000	0.0858	0.075	–
B7	3400	0.016	4600	3	0.00021	79000	1600	0.0027	1700	200	0.0019	9500	0.111	0.035	–
B8	17	9e-05	5400	7	0.00022	31000	10	1.4e-05	1400	76	0.00034	4500	0.0704	0.06	–
B9	40	0.006	150000	0.3	1.1e-05	42000	0.2	0.00032	1.4e+06	21	0.00037	17000	0.0644	0.066	–
B10	354	0.00015	420	13	0.00028	22000	9	0.00059	70000	257	7.7e-05	300	0.0402	0.055	–
B11	4400	0.0014	–	144	0.0026	18000	0.6	0.0004	640000	527	0.00015	280	0.062	0.049	–
